From PMC6747709 (2019)
Where two headings read alike, the source gives them in different places.

Key:
Assay in all cases: SPR
[1] = biological target: T1, CD47 extracellular domain (UniProt Q08722, biotin (enzymatically biotinylated; stated for the SPR experiment))
[2] = biological target: T1, CD47 extracellular domain; remark: listed apart in the source
[3] = biological target: T1, CD47 extracellular domain; remark: listed apart in the source
[4] = biological target: T1, CD47 extracellular domain; remark: listed apart in the source
[5] = biological target: T1, CD47 extracellular domain; remark: listed apart in the source
[6] = biological target: T1, CD47 extracellular domain; remark: listed apart in the source

T1 sequence (Q08722 19-141): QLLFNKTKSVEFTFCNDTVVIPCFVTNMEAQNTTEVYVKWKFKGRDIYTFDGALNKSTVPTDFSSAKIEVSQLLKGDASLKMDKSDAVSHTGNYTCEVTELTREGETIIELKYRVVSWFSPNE

B1: Nb02 mutant M4 (VHH)
VHH: EVQLQASGGGLVQAGGSLRLSCAASGFTNERSQNMGWFRQAPGKEREGVACIQSRVVECWYADSVKGRFTISRDNAKNTVYLQMNSLKPEDTAVYYCAAPRAITGHSAVGEHMCDYWGQGTQVTVSS
Binder B1 has a koff [1] of 0.000392 s⁻¹.

B2: Nb02 quadruple mutant M7 (G107W, T108H, S109V, F110A) (VHH)
VHH: EVQLQASGGGLVQAGGSLRLSCAASGFTNERSQNMGWFRQAPGKEREGVACISSRVVECWYADSVKGRFTISRDNAKNTVYLQMNSLKPEDTAVYYCAAPRAITWHVAVGEHMCDYWGQGTQVTVSS
B2 was tested, and the koff [2] was 4.04e-05 s⁻¹.

B3: Nb02 mutant M3 (VHH)
VHH: EVQLQASGGGLVQAGGSLRLSCAASGFTNERSQNMGWFRQAPGKEREGVACIQSRVVECWYADSVKGRFTISRDNAKNTVYLQMNSLKPEDTAVYYCAAPRAITGHVFVGEHMCDYWGQGTQVTVSS
Work on B3 yielded a koff [3] of 0.000312 s⁻¹.

B4: Nb02 mutant M1 (VHH)
VHH: EVQLQASGGGLVQAGGSLRLSCAASGFTNERSQNMGWFRQAPGKEREGVACIQSRVVECWYADSVKGRFTISRDNAKNTVYLQMNSLKPEDTAVYYCAAPRAITWHSFVGEHMCDYWGQGTQVTVSS
B4 was tested, and the koff [4] was 0.000126 s⁻¹.

B5: Nb02 mutant M2 (VHH)
VHH: EVQLQASGGGLVQAGGSLRLSCAASGFTNERSQNMGWFRQAPGKEREGVACIQSRVVECWYADSVKGRFTISRDNAKNTVYLQMNSLKPEDTAVYYCAAPRAITWTVFVGEHMCDYWGQGTQVTVSS
For B5, the koff [5] was 2.73e-05 s⁻¹.

B6: Nb02 mutant M6 (VHH)
VHH: EVQLQASGGGLVQAGGSLRLSCAASGFTNERSQNMGWFRQAPGKEREGVACIQSRVVECWYADSVKGRFTISRDNAKNTVYLQMNSLKPEDTAVYYCAAPRAITWHVFVGEHMCDYWGQGTQVTVSS
Binder B6 has a koff [6] of 0.000117 s⁻¹.
